Legend:
[1] = target: fl-16E7CR1/2 (aa 1–44) (human papillomavirus type 16) (UniProt P03129); assay: fluorescence polarisation; direct: 1.5-fold dilution series of MBP-E6 (or MBP) against fixed fl-E7 (350 nM HPV16, 200 nM HPV31) or 350 nM fl-16E7CR1/2; 20 mM Hepes pH 7.5, 200 mM NaCl, 1 mM TCEP, 0.005% Tween-20; one-site-specific binding fit
[2] = target: fl-16E7 (human papillomavirus type 16) (UniProt P03129); assay: as above
[3] = target: fl-16E7 (human papillomavirus type 16) (UniProt P03129); assay: AUC; sedimentation velocity, 40,000 rpm, 20 °C, 20 mM Hepes pH 7.5, 200 mM NaCl, 1 mM TCEP; fl-16E7 followed at 495 nm; 1:1 molar mixture and titration of MBP-16E6_4C4S-LxxLL (0-150 μM) against 100 μM fl-16E7
[4] = target: fl-16E7 (human papillomavirus type 16) (UniProt P03129); assay: AUC; sedimentation equilibrium, 12,000 or 18,000 rpm, 20 °C, 20 mM Hepes pH 7.5, 200 mM NaCl, 1 mM TCEP; 100 μM MBP-16E6_4C4S-LxxLL, 100 μM fl-16E7, 100 μM complex (1:1 molar mixture)
[5] = target: fl-31E7 (human papillomavirus type 31) (UniProt P17387); assay: fluorescence polarisation; direct: 1.5-fold dilution series of MBP-E6 (or MBP) against fixed fl-E7 (350 nM HPV16, 200 nM HPV31) or 350 nM fl-16E7CR1/2; 20 mM Hepes pH 7.5, 200 mM NaCl, 1 mM TCEP, 0.005% Tween-20; one-site-specific binding fit
[6] = target: MBP-16E6_4C4S (human papillomavirus type 16); assay: fluorescence polarisation; competition: nonlabeled 16E7CR1/2 (aa 1-44) against the complex of 200 μM MBP-16E6_4C4S and 350 nM fl-16E7CR1/2 (60% saturation)
[7] = target: MBP-16E6_4C4S (human papillomavirus type 16); assay: fluorescence polarisation; competition: nonlabeled 16E7CR1/2 against the fl-16E7/MBP-16E6_4C4S complex (Fig. S5)
[8] = target: MBP-16E6_4C4S (human papillomavirus type 16); assay: fluorescence polarisation; competition: unlabeled GGG-E7 dimer (two-fold dilutions, from 200 μM HPV16, from 150 μM HPV31) against the preformed complex of fl-E7 with 50 μM MBP-16E6_4C4S or 70 μM MBP-31E6_2C2S-LxxLL (60-80% saturation); FP assay buffer; one-site-specific binding fit
[9] = target: MBP-31E6_2C2S-LxxLL (human papillomavirus type 31 | not stated) (UniProt P17386); assay: as above
EYFP-31E7 = target: T1, EYFP-31E7 (human papillomavirus type 31, UniProt P17387 1-98); assay: FRET or BRET; flow cytometry-based FRET (FACS-FRET) in C33A cells coexpressing mTagBFP2-E6 and EYFP-E7 of the same HPV type; at least 10% FRET and at least 500 FRET-positive cells count as an interaction; three biological replicates; settings: partners not purified
T1 construct: Cloned in pEYFP-C1; SG linker between EYFP and E7; also called EYFP-E7 (HPV31); HPV 31E7; source: C33A, transfected, in cells; not shown: EYFP, N-terminal, kept
T1 sequence: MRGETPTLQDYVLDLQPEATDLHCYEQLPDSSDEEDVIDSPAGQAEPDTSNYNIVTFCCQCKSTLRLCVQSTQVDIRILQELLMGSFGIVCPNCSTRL

EYFP-16E7 = target: T2, EYFP-16E7 (human papillomavirus type 16, UniProt P03129 1-98); assay: as above; settings: partners not purified
T2 construct: Cloned in pEYFP-C1; SG linker between EYFP and E7; also called EYFP-E7 (HPV16); HPV 16E7; source: C33A, transfected, in cells; not shown: EYFP, N-terminal, kept
T2 sequence (looked up): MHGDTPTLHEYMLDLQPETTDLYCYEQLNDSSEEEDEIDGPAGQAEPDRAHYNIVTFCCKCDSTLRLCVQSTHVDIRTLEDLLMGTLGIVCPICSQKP

EYFP-38E7 = target: T3, EYFP-38E7 (human papillomavirus type 38, UniProt Q80908 1-100); assay: as above; settings: partners not purified
T3 construct: Cloned in pEYFP-C1; SG linker between EYFP and E7; also called EYFP-E7 (HPV38); HPV 38E7; source: C33A, transfected, in cells; not shown: EYFP, N-terminal, kept
T3 sequence: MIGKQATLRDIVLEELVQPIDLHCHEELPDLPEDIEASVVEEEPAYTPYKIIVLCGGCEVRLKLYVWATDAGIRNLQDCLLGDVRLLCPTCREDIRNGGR

MBP-16E6_4C4S (natural protein)
Kd [1]: 101 µM
Kd [2]: 3 µM

MBP-16E6_4C4S-LxxLL
percent of fl-16E7 in complex [3]: 89%
Kd [2]: 46.4 µM
stoichiometry N (E6 per E7 (2:2 complex)) [4]: 1

MBP-31E6_2C2S-LxxLL (from UniProt P17386 1-149)
Kd [5]: 59.4 µM

fl-16E7 (from UniProt P03129 1-98) (natural protein)
stoichiometry N [4]: 2

nonlabeled 16E7CR1/2 (aa 1–44) (from UniProt P03129 1-44) (peptide)
Kd [6]: 128 µM
Kd [7]: 288 µM

unlabeled GGG-16E7 dimer (from UniProt P03129 1-98) (natural protein)
Kd [8]: 61.9 µM

B1: unlabeled GGG-31E7 dimer (natural protein)
chain: GGGMRGETPTLQDYVLDLQPEATDLHCYEQLPDSSDEEDVIDSPAGQAEPDTSNYNIVTFCCQCKSTLRLCVQSTQVDIRILQELLMGSFGIVCPNCSTRL
Kd [9]: 54.2 µM

B2: mTagBFP2-31E6 (natural protein)
chain: MFKNPAERPRKLHELSSALEIPYDELRLNCVYCKGQLTETEVLDFAFTDLTIVYRDDTPHGVCTKCLRFYSKVSEFRWYRYSVYGTTLEKLTNKGICDLLIRCITCQRPLCPEEKQRHLDKKKRFHNIGGRWTGRCIACWRRPRTETQV
notes: Cloned in pmTagBFP-C1; SG linker between the fluorescent protein and the viral protein; also called mTagBFP2-E6 (HPV31); HPV 31E6; source: C33A, transfected, in cells; not shown: mTagBFP2, N-terminal, kept
percent FRET (EYFP-31E7): 16.3%

B3: mTagBFP2-16E6 (natural protein, human papillomavirus type 16, UniProt P03126 1-158, looked up)
chain: MHQKRTAMFQDPQERPRKLPQLCTELQTTIHDIILECVYCKQQLLRREVYDFAFRDLCIVYRDGNPYAVCDKCLKFYSKISEYRHYCYSLYGTTLEQQYNKPLCDLLIRCINCQKPLCPEEKQRHLDKKQRFHNIRGRWTGRCMSCCRSSRTRRETQL
notes: Cloned in pmTagBFP-C1; SG linker between the fluorescent protein and the viral protein; also called mTagBFP2-E6 (HPV16); HPV 16E6; source: C33A, transfected, in cells; not shown: mTagBFP2, N-terminal, kept
percent FRET (EYFP-16E7): 13%

B4: mTagBFP2-38E6 (natural protein)
chain: MELPKPQTVQQLSDKLTVPVEDLLLPCRFCNSFLTYIELREFDYKNLQLIWTQEDFVFACCSSCAYASAQYECQQFYELTVFGREIEQVEQQTIGLIVIRCQYCLKCLDLIEKLDICCSHQAFHKVRGNWKGRCRHCKAIE
notes: Cloned in pmTagBFP-C1; SG linker between the fluorescent protein and the viral protein; also called mTagBFP2-E6 (HPV38); HPV 38E6; source: C33A, transfected, in cells; not shown: mTagBFP2, N-terminal, kept
percent FRET (EYFP-38E7): 17.9%

From PMC10372912, “Evidence for direct interaction between the oncogenic proteins E6 and E7 of high-risk human papillomavirus (HPV)” (The Journal of Biological Chemistry, 2023)
